Measurements: US10975365B2, “Di-enzymatic chimeric endolysin” (Government of the United States of America, as represented …, priority 2018, dated 2021)

Columns and labels:
[1] = tested on: eight serotypes of pneumococci; experiment: MIC test on pneumococcal strains; format: cell-based, Streptococcus pneumoniae
Experimental: The MICs of enzymes and antibiotics were determined in a 96-well titration plate in triplicate. Briefly, the overnight pneumococcal culture was diluted with 2×THY to obtain a final concentration of 1×10^7 CFU/ml, and other bacterial species were diluted with 2-folded medium to 1×10^5 CFU/ml. 100 μl of the diluted bacterial culture was subjected into each well, mixing with the serial 2-fold diluted 100 μl of enzymes/antibiotics. PBS buffer was used as a negative control. The plates were sealed via parafilm and statically incubated at 37° C. incubator for 24 h. The MIC was defined as the lowest concentration of treatment that inhibited visible growth of the bacterium.
To further evaluate the activity of ClyX-1, MIC tests were performed against eight serotypes of pneumococci including penicillin-resistant strains and capsule-free mutant with information shown in FIG. 13. Penicillin and levofloxacin were tested as standards to benchmark the antimicrobial activity. All of the strains were sensitive to levofloxacin (MIC<=2). Only the two penicillin-resistant strains indicated MIC larger than 2 μg/ml (resistance). […] The MICs of ClyX-1 were lower than that of Cpl-1 and even levofloxacin, ranging from 0.13 μg/ml to 0.5 μg/ml.

[2] = tested on: S. pneumoniae D39; experiment: Bactericidal assay on D39, ClyX-1 compared with Cpl-1 and PlyCA; format: cell-based, Streptococcus pneumoniae
Experimental: (§1) (a) Different concentrations of ClyX-1 and Cpl-1 were mixed with 10^6 overnight S. pneumoniae D39 culture for 5 min. The cells were then serial diluted and plated on the THY plates. Log killing was determined through the comparisons of PBS treatment and the enzymes treatment. (b) Female BALB/c mice were injected intraperitoneally with pneumococcus strain S. pneumoniae NS26 at a single dose at 2.95×10^7 colony forming units (CFU) per mouse. One hour after the infection, mice were intraperitoneally received a single dose of different treatments in different amount per mouse. The lines represent the percentage survival of mice for 10 days. The data was plotted as Kaplan-Meier survival curves and analyzed via the Log-rank (Mantel-Cox) test (*P<0.001; **P<0.0001);
(§2) With regard to bactericidal assay, bacterial cells were diluted to 2× rich media to generate a final concentration of 5.0×10^6 CFU/ml. 100 μl of the diluted bacterial culture was added into a 96-well titration plate in triplicate and mixed with 100 μl of sterile-filtered enzymes. Plates were sealed and incubated at 37° C. for 5-60 min. After the incubation, bacterial cells were serially diluted in 10-fold increments into sterile PBS and plated on THY/TSB agar. Log killing was calculated as follows: −log[(CFU under enzyme treatment)/(CFU under PBS treatment)].
Bactericidal assays were repeated using the three lysins at different concentrations (0.5 μg/ml to 50 μg/ml) on a different strain, D39 (FIG. 10a).

[3] = tested on: S. pneumoniae NS26; experiment: Mouse systemic infection model, survival; format: in vivo, female BALB/c mice
Experimental: as §1
With regard to in vivo mouse infection models, mouse infection experiments were carried out in an ABSL-2 lab. In the mouse systemic infection model, female BALB/c mice (6-8 weeks old) were injected intraperitoneally with S. pneumoniae NS26 at a single dose of 2.95×10^7 CFU/mouse and divided randomly into multiple groups. Bacterial burden in blood and organs in mice 1 h post-infected were confirmed by plating on THY agar as described previously. One hour post-infection, these groups intraperitoneally received a single dose of 20, 40, or 80 μg/mouse of […] (n=10); 20, 40, or 80 μg/mouse of Cpl-1 (n=10); 100 μg/mouse of penicillin G (n=10); or an equal volume of PBS buffer (n=10). The survival data for all groups were recorded for 10 days.
To validate the in vitro bactericidal activity of ClyX-1, we applied a mouse systemic infection model to test the in vivo efficacy of the enzyme. Mice were challenged to a 2-days lethal-dose of 2.95×10^7 CFU. One hour after infection, the mice were intraperitoneally injected a single dose containing different amount of either ClyX-1 or Cpl-1 ranging from 20 μg-80 μg. The antibiotics control was 100 μg/mouse of penicillin G, and the negative control was as PBS, pH7.4 buffer. The mice were then observed and recorded for the survival data. All the mice treated with PBS buffer died within the first 2 days.

[4] = tested on: five strains of stationary phase S. pneumoniae; experiment: Bactericidal activity of ClyX-3 on pneumococcal strains; format: cell-based, Streptococcus pneumoniae; conditions: 5 μg/ml; 5 min
Experimental: (a) Bactericidal effects of ClyX-3 against five strains of stationary phase S. pneumoniae. 5 μg/ml of enzymes were mixed with 10^6 bacterial cultures for 5 min. Log killing was determined through the comparisons of PBS treatment and enzymes treatment. (b) Bactericidal effects of ClyX-4 against stationary phase streptococci. 50 μg/ml of enzymes were mixed with 10^6 bacterial culture for 1 h. Log killing was determined through the comparisons of PBS treatment and enzymes treatment;
as §2
With regard to applying the design rationale to add a C′ terminal EAD such that two EADs are disposed at each side of the CBD, the process was used to engineer endolysins for increased activity. […]

[5] = tested on: S. pneumoniae ATCC TIGR 4; experiment: Bacteriolytic (turbidity reduction) assay; format: cell-based, Streptococcus pneumoniae; conditions: 5 μg/ml; OD from 1.0 to 0.2 within the first 2 min; overnight culture
Experimental: In a bacteriolytic assay, bacterial culture (stationary phase) was harvested at 5,000 for 10 min at 4° C., washed twice and resuspended in PBS buffer, pH7.4. In a 96-well titration plate, the resuspended bacterial solution was mixed 1:1 (u/u) with endolysin to a final OD600 between 0.8 to 1.0. In each run, PBS was included as a negative control. Spectrophotometric readings (OD600) were taken every 15 s over 10 min on a spectrophotometer. Vmax was calculated as the slope of the linear portion and represented the endolysins activity. All experiments were conducted in triplicate to get the standard deviation.
Bacteriolytic capacity of ClyX-1 and ClyX-1 linkers were analyzed via the turbidity reduction assay against the overnight culture of S. pneumoniae ATCC TIGR 4. Both enzymes-induced lysis of the bacterial peptidoglycan caused a decrease in OD from 1.0 to 0.2 (80%) within the first 2 min of the turbidity assay at 5 μg/ml as shown in FIG. 9a. The linkers were the only difference between these two enzymes, and the unstructured region of PlyCA GyH, PlyCA CHAP, and Cpl-1 CBD provide optimal flexibility for enzymatical activity. High lytic activity correlated with data for bacterial survival after chimera treatment. ClyX-1 sterilized cultures for 5 min, causing a decrease in TIGR 4 viability of ˜6 log, at as low as 0.5 μg/ml (FIG. 9b). […]

**Q.** For Penicillin, which MIC ([1]; the two penicillin-resistant strains) is on record?
**A.** > 2 µg/mL

**Q.** Which MIC ([1]; all strains, 24 h, unit not given) does the source give for `C[C@H]1COc2c(N3CCN(C)CC3)c(F)cc3c(=O)c(C(=O)O)cn1c23` [levofloxacin] here?
**A.** <= 2

B1: Cpl-1: parental endolysin derived from the streptococcal Cp-1 phage (protein, UniProt P15057 1-339, looked up)
Lysozyme: MVKKNDLFVDVSSHNGYDITGILEQMGTTNTIIKISESTTYLNPCLSAQVEQSNPIGFYHFARFGGDVAEAEREAQFFLDNVPMQVKYLVLDYEDDPSGDAQANTNACLRFMQMIADAGYKPIYYSYKPFTHDNVDYQQILAQFPNSLWIAGYGLNDGTANFEYFPSMDGIRWWQYSSNPFDKNIVLLDDEEDDKPKTAGTWKQDSKGWWFRRNNGSFPYNKWEKIGGVWYYFDSKGYCLTSEWLKDNEKWYYLKDNGAMATGWVLVGSEWYYMDDSGAMVTGWVKYKNNWYYMTNERGNMVSNEFIKSGKGWYFMNTNGELADNPSFTKEPDGLITVA
**Q.** How did the log reduction ([2]; 0.5 μg/ml, 5 min) turn out when B1 was run?
**A.** < 1 log

**Q.** What about the “concentration at which the bacteria culture was sterilized” value ([2]; within 5 min, tested 0.5 to 50 μg/ml) of the same molecule?
**A.** 50 µg/mL

**Q.** What about the “time within which the mice had died” value ([3]; 20 μg single i.p. dose 1 h after infection) of the same molecule?
**A.** ≤ 5 days

**Q.** What about the “mice rescued (survival)” value ([3]; 80 μg single i.p. dose 1 h after infection, 10 days) of the same molecule?
**A.** 20%

**Q.** What about the “log reduction of tested pneumococcal strains” value [4] of the same molecule?
**A.** ~2 logs

B2: ClyX-3: the full-length Cpl-1 with an additional C′ terminal PlyC CHAP; Seq. ID No. 21 (protein)
chain: MVKKNDLFVDVSSHNGYDITGILEQMGTTNTIIKISESTTYLNPCLSAQVEQSNPIGFYHFARFGGDVAEAEREAQFFLDNVPMQVKYLVLDYEDDPSGDAQANTNACLRFMQMIADAGYKPIYYSYKPFTHDNVDYQQILAQFPNSLWIAGYGLNDGTANFEYFPSMDGIRWWQYSSNPFDKNIVLLDDEEDDKPKTAGTWKQDSKGWWFRRNNGSFPYNKWEKIGGVWYYFDSKGYCLTSEWLKDNEKWYYLKDNGAMATGWVLVGSEWYYMDDSGAMVTGWVKYKNNWYYMTNERGNMVSNEFIKSGKGWYFMNTNGELADNPSFTKEPDGLITVAGSDRVAANLANAQAQVGKYIGDGQCYAWVGWWSARVCGYSISYSTGDPMLPLIGDGMNAHSIHLGWDWSIANTGIVNYPVGTVGRKEDLRVGAIWCATAFSGAPFYTGQYGHTGIIESWSDTTVTVLEQNILGSPVIRSTYDLNTFLSTLTGLITFK
modifications: Bacteriophage
notes: the full-length Cpl-1 with an additional C′ terminal PlyC CHAP; ID No. 21
**Q.** Which “activity by MIC compared with parental endolysin and ClyX-1” value [1] does the source give for B2 here?
**A.** better than parental endolysins

**Q.** What about the “log reduction of tested pneumococcal strains” value [4] of the same molecule?
**A.** ~4 logs

B3: ClyX-1 linkers: similar to ClyX-1 but with two extra native linkers in the PlyCA; Seq. ID No. 18 (protein)
chain: MSKKYTQQQYEKYLAQPANNTFGLSPQQVADWFMGQAGARPVINSYGVNASNLVSTYIPKMQEYGVSYTLFLMYTVFEGGGAGNWINHYMYDTGSNGLECLEHDLQYIHGVWETYFPPALSAPECYPATEDNAGALDRFYQSLPGRTWGDVMIPSTMAGNAWVWAYNYCVNNQGAAPLVYFGNPYDSQIDSLLAMGADPFTGGSITGDGKNPSVGTGNATVSASSECTMEEDDKPKTAGTWKQDSKGWWFRRNNGSFPYNKWEKIGGVWYYFDSKGYCLTSEWLKDNEKWYYLKDNGAMATGWVLVGSEWYYMDDSGAMVTGWVKYKNNWYYMTNERGNMVSNEFIKSGKGWYFMNTNGELADNPSFTKEPDGLITVALQQTNPNPDKPTVKSPGQNDLGSGSDRVAANLANAQAQVGKYIGDGQCYAWVGWWSARVCGYSISYSTGDPMLPLIGDGMNAHSIHLGWDWSIANTGIVNYPVGTVGRKEDLRVGAIWCATAFSGAPFYTGQYGHTGIIESWSDTTVTVLEQNILGSPVIRSTYDLNTFLSTLTGLITFK
modifications: Bacteriophage
notes: similar to ClyX-1 but with two extra native linkers in the PlyCA; ID No. 18
**Q.** How did the “decrease in OD in turbidity assay” value [5] turn out when B3 was run?
**A.** 80%
